Assay results as given in publication PMC6318328, “Structural insights into trans-histone regulation of H3K4 methylation by unique histone H4 binding of MLL3/4” (Nature Communications, 2019).

Molecular target: MLL3 ePHD6 E1097A (human) (UniProt Q8NEZ4)
Test: ITC; peptide (1–2 mM) in the syringe injected into protein (50–100 μM) in the cell; 25 °C; 20 mM Tris pH 7.5, 150 mM NaCl; single-site binding model

- fold reduction of binding against the wild type: 2 fold
Substance: histone H4 peptide H4_(11–21) (from UniProt P62805 12-22)
